In test [1] the target is VcaM4I Helix-HNH fragment (residues 148-309) (Vibrio campbellii). Nature of the test: SEC; Superdex 75 10/300 GL, 15 mM Tris-HCl (pH 8.5), 0.3 M NaCl, 1 mM TCEP; bovine serum albumin, ovalbumin, myoglobin and vitamin B12 as molecular mass standards. A general note: Size exclusion chromatography separates by hydrodynamic size, large species first.
Test [2] has as its target VcaM4I HNH domain H224A variant (residues 179-309) (Vibrio campbellii). The test is described as above.

A word on the stoichiometry N: it is a count of units in the complex or per binding partner.

Substance “VcaM4I Helix-HNH fragment (residues 148-309) (domain or fragment)” came in with a stoichiometry N in test [1] of 2.
In turn, “VcaM4I HNH domain H224A variant (residues 179-309) (domain or fragment)” came in with a stoichiometry N in test [2] of 2.
